Measured values as given in patent CN105585631A (BEIJING HEALTH GUARD BIOTECHNOLOGY CO LTD, dated 2016).

Assays:
[1] = biological target: HPV-16 L1 VLP (重组人乳头瘤病毒-16型VLP蛋白, 未变性) (人乳头瘤病毒16型 (HPV16)) (UniProt P03101); assay: indirect ELISA, native VLP 2 ug/ml coated, antibody 0.3 ug/ml
[2] = biological target: HPV-16 L1 VLP (重组人乳头瘤病毒-16型VLP蛋白, 未变性) (人乳头瘤病毒16型 (HPV16)) (UniProt P03101); assay: indirect ELISA, HPV16 VLP 200 ng/well coated, antibody at 1, 0.2 and 0.04 ug/ml
[3] = biological target: HPV-16 L1 VLP (重组人乳头瘤病毒-16型VLP蛋白, 未变性) (人乳头瘤病毒16型 (HPV16)) (UniProt P03101); assay: competition ELISA on coated HPV16 VLP; HRP-labelled antibody 0.3 ug/ml; competitor: WHO international standard 05/134 at 0.5 IU/ml
HPV6 VLP = biological target: T1, HPV6 VLP (HPV6, UniProt P69899 1-500); assay: SPR, BIACORE 3000
T1 sequence: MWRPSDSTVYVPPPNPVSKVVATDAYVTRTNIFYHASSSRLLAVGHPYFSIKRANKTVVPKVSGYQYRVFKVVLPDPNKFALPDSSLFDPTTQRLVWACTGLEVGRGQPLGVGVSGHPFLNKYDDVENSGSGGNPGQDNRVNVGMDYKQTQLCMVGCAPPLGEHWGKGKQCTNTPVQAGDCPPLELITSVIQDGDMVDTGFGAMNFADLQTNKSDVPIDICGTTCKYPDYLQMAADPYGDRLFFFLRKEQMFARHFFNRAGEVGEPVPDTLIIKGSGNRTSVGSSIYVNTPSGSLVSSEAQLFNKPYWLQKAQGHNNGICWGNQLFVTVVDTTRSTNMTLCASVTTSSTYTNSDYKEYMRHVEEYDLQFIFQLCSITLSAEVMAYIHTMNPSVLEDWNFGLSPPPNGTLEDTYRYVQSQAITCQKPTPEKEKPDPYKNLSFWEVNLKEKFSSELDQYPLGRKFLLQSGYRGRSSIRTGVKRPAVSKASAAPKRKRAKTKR

HPV11 VLP = biological target: T2, HPV11 VLP (HPV11, UniProt P04012 1-501); assay: SPR, BIACORE 3000
T2 sequence: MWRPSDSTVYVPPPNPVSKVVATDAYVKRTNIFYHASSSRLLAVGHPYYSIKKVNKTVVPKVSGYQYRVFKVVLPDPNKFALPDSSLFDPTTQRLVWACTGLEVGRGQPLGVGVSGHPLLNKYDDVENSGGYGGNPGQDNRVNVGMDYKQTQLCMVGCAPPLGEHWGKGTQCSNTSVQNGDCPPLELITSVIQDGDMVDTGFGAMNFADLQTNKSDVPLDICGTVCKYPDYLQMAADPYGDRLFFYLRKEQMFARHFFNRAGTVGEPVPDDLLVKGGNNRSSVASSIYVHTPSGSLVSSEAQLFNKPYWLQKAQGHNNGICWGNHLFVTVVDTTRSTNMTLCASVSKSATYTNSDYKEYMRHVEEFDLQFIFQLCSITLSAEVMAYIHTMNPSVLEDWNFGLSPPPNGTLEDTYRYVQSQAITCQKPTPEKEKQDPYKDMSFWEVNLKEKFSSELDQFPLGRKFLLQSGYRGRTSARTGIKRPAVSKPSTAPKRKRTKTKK

HPV31 VLP = biological target: T3, HPV31 VLP (HPV31, UniProt P17388 1-504); assay: SPR, BIACORE 3000
T3 sequence: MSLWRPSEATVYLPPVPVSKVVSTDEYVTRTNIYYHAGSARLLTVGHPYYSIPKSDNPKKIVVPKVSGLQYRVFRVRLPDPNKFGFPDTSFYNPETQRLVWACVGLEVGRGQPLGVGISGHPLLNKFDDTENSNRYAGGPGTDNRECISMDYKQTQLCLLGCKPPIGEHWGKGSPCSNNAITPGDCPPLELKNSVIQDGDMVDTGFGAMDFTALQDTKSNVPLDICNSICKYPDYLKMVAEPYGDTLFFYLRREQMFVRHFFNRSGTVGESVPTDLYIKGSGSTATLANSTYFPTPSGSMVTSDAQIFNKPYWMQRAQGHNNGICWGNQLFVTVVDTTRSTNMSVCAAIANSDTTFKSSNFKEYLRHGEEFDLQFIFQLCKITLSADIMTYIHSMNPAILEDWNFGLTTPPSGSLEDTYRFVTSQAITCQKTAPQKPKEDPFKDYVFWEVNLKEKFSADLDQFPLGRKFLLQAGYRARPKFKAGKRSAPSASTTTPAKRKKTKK

HPV33 VLP = biological target: T4, HPV33 VLP (HPV33, UniProt P06416 1-499); assay: SPR, BIACORE 3000
T4 sequence: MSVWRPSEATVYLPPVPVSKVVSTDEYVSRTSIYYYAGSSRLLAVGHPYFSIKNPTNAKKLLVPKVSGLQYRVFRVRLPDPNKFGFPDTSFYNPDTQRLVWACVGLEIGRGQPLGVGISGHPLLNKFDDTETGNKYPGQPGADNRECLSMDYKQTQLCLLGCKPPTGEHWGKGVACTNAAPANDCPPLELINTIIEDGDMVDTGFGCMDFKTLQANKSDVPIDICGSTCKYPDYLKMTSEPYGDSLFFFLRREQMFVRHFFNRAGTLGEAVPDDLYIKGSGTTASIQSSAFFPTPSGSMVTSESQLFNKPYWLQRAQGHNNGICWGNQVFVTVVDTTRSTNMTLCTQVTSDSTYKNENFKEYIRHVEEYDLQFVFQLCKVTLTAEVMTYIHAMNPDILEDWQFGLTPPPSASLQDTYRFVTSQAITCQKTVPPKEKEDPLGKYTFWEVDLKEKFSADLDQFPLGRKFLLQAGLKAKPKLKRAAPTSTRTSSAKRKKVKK

HPV45 VLP = biological target: T5, HPV45 VLP (HPV45, UniProt P36741 30-539); assay: SPR, BIACORE 3000
T5 sequence: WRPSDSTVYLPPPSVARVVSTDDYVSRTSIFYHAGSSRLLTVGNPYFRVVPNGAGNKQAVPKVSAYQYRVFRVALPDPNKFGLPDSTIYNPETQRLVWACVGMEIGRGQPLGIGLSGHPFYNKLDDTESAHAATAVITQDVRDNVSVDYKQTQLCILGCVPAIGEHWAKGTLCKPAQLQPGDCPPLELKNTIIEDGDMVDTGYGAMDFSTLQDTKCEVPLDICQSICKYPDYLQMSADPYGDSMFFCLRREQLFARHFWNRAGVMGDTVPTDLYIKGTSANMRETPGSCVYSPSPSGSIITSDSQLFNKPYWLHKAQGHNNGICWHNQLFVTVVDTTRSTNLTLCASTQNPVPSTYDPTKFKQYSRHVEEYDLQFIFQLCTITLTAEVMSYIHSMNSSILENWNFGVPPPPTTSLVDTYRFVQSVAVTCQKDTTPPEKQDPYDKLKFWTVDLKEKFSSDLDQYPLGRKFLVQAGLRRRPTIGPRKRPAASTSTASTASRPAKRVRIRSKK

HPV-18 L1 VLP = biological target: T6, HPV-18 L1 VLP (HPV18, UniProt P06794 62-568); assay: indirect ELISA, VLP 2 ug/ml coated
T6 construct: also called HPV18 VLP
T6 sequence: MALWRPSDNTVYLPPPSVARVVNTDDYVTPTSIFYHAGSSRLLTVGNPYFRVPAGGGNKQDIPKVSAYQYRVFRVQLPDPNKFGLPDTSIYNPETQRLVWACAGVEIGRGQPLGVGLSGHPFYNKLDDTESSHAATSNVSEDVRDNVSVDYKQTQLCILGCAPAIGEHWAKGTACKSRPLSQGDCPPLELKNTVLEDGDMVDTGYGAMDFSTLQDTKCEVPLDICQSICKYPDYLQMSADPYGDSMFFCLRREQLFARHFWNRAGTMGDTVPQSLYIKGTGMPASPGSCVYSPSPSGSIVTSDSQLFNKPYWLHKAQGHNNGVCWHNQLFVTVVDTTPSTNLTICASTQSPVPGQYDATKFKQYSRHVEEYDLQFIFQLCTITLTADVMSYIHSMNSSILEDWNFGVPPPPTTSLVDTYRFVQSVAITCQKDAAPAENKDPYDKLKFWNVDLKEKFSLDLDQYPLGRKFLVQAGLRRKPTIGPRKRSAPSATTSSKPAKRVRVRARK

HPV-58 L1 VLP = biological target: T7, HPV-58 L1 VLP (HPV58, UniProt P26535 27-524); assay: indirect ELISA, VLP 2 ug/ml coated
T7 construct: also called HPV58VLP
T7 sequence: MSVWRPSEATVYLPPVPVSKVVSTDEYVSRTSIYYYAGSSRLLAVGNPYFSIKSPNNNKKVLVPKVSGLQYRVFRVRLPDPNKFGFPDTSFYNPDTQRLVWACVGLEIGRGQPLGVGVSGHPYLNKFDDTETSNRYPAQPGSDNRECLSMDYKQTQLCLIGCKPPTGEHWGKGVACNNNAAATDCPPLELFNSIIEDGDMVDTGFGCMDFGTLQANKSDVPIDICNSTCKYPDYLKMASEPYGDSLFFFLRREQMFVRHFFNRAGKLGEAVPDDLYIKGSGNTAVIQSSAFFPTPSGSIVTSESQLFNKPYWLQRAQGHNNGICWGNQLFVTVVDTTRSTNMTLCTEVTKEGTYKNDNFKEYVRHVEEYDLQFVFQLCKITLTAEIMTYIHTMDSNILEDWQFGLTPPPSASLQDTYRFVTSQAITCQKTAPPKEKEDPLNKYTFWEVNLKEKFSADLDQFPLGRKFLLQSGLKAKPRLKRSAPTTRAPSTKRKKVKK

UniProt P03101, sequence (P03101 whole entry): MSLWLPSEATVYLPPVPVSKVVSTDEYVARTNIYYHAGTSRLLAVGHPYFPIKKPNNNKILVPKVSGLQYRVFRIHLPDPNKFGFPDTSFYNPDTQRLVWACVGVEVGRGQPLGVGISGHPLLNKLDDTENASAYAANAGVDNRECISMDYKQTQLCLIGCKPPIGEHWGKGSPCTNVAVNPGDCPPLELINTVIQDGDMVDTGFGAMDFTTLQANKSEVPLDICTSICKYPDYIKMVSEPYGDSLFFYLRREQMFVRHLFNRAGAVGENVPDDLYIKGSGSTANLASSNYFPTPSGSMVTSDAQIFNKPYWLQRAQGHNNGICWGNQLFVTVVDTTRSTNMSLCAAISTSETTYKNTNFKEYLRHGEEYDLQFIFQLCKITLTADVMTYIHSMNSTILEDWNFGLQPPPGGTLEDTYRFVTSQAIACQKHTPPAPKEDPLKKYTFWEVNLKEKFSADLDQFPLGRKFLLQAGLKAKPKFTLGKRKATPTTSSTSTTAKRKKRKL

B1: 单克隆抗体4G12 (杂交瘤细胞株4G12, CGMCC 11298) (antibody, V domains shown)
VH: VKLQQSGAELVKPGASVKLSCTASGFNIKDTYMHWVKQRPEQGLEWIGRIDPANGNPQYDPKFQGKATITADTSSNTACLQLSSLTSEDTAVFYCAREVGGYYFDYWGQGTTVTVSS
VL: DIQLTRSPAIMSASPGEKVTITCSASSSVSYMHWFQQKPGTSPKLWIYSTSNLASGVPARFSGSGSGTSYSLTISRMEAEDAATYYCQQRSSYPWTFGGGTKLEI
B1 was tested, and the OD450 [1] was > 1 OD450, the 信号强度 (ELISA) [2] was > 1 and the 抑制率 [3] was > 40%.

B2: 单克隆抗体5A6 (杂交瘤细胞株5A6, CGMCC 11299) (antibody, V domains shown)
VH: VKLQQSGAELVKPGASVKLSCTASGFNIKDTYMHWVKQRPEQGLEWIGRIDPANGNTEYDPNFQGKATITSDTSSNTAYLHLSSLTSEDTAVYYCAREVGGYYFDYWGQGTTVTVSS
VL: DIQLTQSPSSMSASLGDRITITCQATQDIVKNLNWYQQKPGKPPSFLIYYATELAEGVPSRFSGSGSGSDYSLTISNLESEDFADYYCLQFYEFPLTFGAGTKLEI
notes: Capture antibody of the sandwich kit; also called 克隆5A6
B2: no binding (tested: antibody up to 20nmol/L) (HPV6 VLP); no binding (tested: antibody up to 20nmol/L) (HPV11 VLP); no binding (tested: antibody up to 20nmol/L) (HPV31 VLP). B2: no binding (tested: antibody up to 20nmol/L) (HPV33 VLP); no binding (tested: antibody up to 20nmol/L) (HPV45 VLP); no binding (tested: 0.3μg/ml) (HPV-18 L1 VLP). For the same binder, the binding result (HPV-58 L1 VLP) was “no binding (tested: 0.3μg/ml)”, the OD450 [1] was > 1 OD450 and the 信号强度 (ELISA) [2] was > 1. The 抑制率 [3] was > 40%.
